Measured values taken from patent US20250163186A1 (PHYLAXIS BIOSCIENCE, published 2025).

target: T1, CH2-4 constant domains of human IgE linked to a transmembrane protein, on 293 cells (human, UniProt P01854-1 104-428); test: flow cytometry, 293 cells expressing human IgE CH2-4
T1 construct: domain: CH2-4 constant domains; also called human IgE-expressing 293 cells
Description: (§1) First, 25 μg of DNA was added to Opti-MEM Reduced Serum Medium (Gibco) mixed with 75 μL of 40 kDa Polyethylenimine (PEI) for a final concentration of 1 μg DNA and 2.5 μg PEI per mL of culture volume. The plasmid DNA was allowed to pre-complex with PEI for 15 minutes before transferring the mixture to 25 mL of 293 cells in a shake flask at a density of 2×10⁶ cells/mL. […] Next, 50 μL of cells were transferred to wells of a round-bottom 96-well assay plate for a total of 50,000 293 cells per well. In a separate 96-well plate, monomeric VHH-hIgG1-Fc fusion proteins were titrated 1:5 in a 8-point dilution series starting at 1 μM in FACS Buffer with the 8th point containing no antibody. 50 μL from each antibody dilution was added to wells containing 50 μL of FACS Buffer with transfected 293 cells which produced a 2-fold dilution of the antibody concentrations from the dilution series resulting in a 500 nM final, starting concentration of the test article titration. The test articles and 293 cells were incubated together at 4° C. for 30 minutes. Next, the 96-well plates were centrifuged at 400×g for 5 minutes and the FACS buffer containing unbound antibody was decanted. Cells were washed 1× with 150 μL 4° C. FACS Buffer. […] The cells were incubated with the fluorophore conjugated detection antibody at 4° C. for 20 minutes. 293 cells were then centrifuged and washed once as described above. Cell pellets were resuspended in 30 μL FACS Buffer and analyzed on an iQue Screener Plus flow cytometer (Sartorius, IntelliCyt) with a 1 second sip time and 1 second void time. Mean fluorescent intensity was calculated using iQue onboard software gating on GFP+ or citrine+ cells.

T1 sequence (P01854 other isoform, or with tags, fused parts or gaps): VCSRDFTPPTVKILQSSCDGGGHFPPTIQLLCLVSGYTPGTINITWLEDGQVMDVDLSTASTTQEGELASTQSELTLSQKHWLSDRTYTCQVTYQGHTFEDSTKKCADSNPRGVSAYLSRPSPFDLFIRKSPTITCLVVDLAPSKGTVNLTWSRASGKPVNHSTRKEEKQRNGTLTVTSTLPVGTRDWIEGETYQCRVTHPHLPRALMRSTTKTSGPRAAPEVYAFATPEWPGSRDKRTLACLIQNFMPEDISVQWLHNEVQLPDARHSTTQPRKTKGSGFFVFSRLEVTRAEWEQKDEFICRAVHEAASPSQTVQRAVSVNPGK

Row | Bmax [MFI] | Kd [nM] | Binder
1 | 1.42e+06 | 2.18 | hzB10v43-NNT (Fc fusion, monomeric) VHH-Fc: EVQLLESGGGEVQPGGSLRLSCVASGLTFSSYNMGWLRQAPGKEREFVGLSGSSSTSTYYAESVKGRFTISRDTSKNTVYLQMTSLRAEDTAVYYCAARRLLSTYWSDRSWDFWGQGTLVTVEPGGPSVFLFPPKPKDTLMISRTPEVTCVVVDVSHEDPEVKFNWYVDGVEVHNAKTKPREEQYNSTYRVVSVLTVLHQDWLNGKEYKCKVSNKALPAPIEKTISKAKGQPREPQVYTLPPSRDELTKNQVNLTCLVKGFYPSDIAVEWESNGQPENNYKTTPPVLDSDGSFFLNSTLTVDKSRWQQGNVFSCSVMHEALHNHYTQKSLSLSPGK
2 | 1.38e+06 | 2.37 | hzB10v44-NNT (Fc fusion, monomeric) VHH-Fc: EVQLLESGGGEVQPGGSLRLSCVASGLTFSSYNMGWLRQAPGKEREFVGLSGSSSTSTYYAESVKGRFTISRDNTKNTVYLQMTSLRAEDTAVYYCAARRLLSTYWSDRSWDFWGQGTLVTVEPGGPSVFLFPPKPKDTLMISRTPEVTCVVVDVSHEDPEVKFNWYVDGVEVHNAKTKPREEQYNSTYRVVSVLTVLHQDWLNGKEYKCKVSNKALPAPIEKTISKAKGQPREPQVYTLPPSRDELTKNQVNLTCLVKGFYPSDIAVEWESNGQPENNYKTTPPVLDSDGSFFLNSTLTVDKSRWQQGNVFSCSVMHEALHNHYTQKSLSLSPGK
3 | 1.33e+06 | 2.26 | hzB10v41-NNT (Fc fusion, monomeric) VHH-Fc: EVQLLESGGGEVQPGGSLRLSCVASGLTFSSYNMGWLRQAPGKEREFVGLSGSSSTSTYYAESVKGRFTISRDQSKNTVYLQMTSLRAEDTAVYYCAARRLLSTYWSDRSWDFWGQGTLVTVEPGGPSVFLFPPKPKDTLMISRTPEVTCVVVDVSHEDPEVKFNWYVDGVEVHNAKTKPREEQYNSTYRVVSVLTVLHQDWLNGKEYKCKVSNKALPAPIEKTISKAKGQPREPQVYTLPPSRDELTKNQVNLTCLVKGFYPSDIAVEWESNGQPENNYKTTPPVLDSDGSFFLNSTLTVDKSRWQQGNVFSCSVMHEALHNHYTQKSLSLSPGK
4 | 1.45e+06 | 2.27 | hzB10v42-NNT (Fc fusion, monomeric) VHH-Fc: EVQLLESGGGEVQPGGSLRLSCVASGLTFSSYNMGWLRQAPGKEREFVGLSGSSSTSTYYAESVKGRFTISRDSSKNTVYLQMTSLRAEDTAVYYCAARRLLSTYWSDRSWDFWGQGTLVTVEPGGPSVFLFPPKPKDTLMISRTPEVTCVVVDVSHEDPEVKFNWYVDGVEVHNAKTKPREEQYNSTYRVVSVLTVLHQDWLNGKEYKCKVSNKALPAPIEKTISKAKGQPREPQVYTLPPSRDELTKNQVNLTCLVKGFYPSDIAVEWESNGQPENNYKTTPPVLDSDGSFFLNSTLTVDKSRWQQGNVFSCSVMHEALHNHYTQKSLSLSPGK
5 | 1.38e+06 | 2.62 | hzB10v40 monomeric VHH-hIgG1-Fc fusion (Fc NNT) (Fc fusion, Humanized variants were tested as monomeric fusions with the non-dimerizing Fc NNT) EVQLLESGGGEVQPGGSLRLSCVASGLTFSSYNMGWLRQAPGKEREFVGLSGSSSTSTYYAESVKGRFTISRDNAKNTVYLQMTSLRAEDTAVYYCAARRLLSTYWSDRSWDFWGQGTLVTVEPGGPSVFLFPPKPKDTLMISRTPEVTCVVVDVSHEDPEVKFNWYVDGVEVHNAKTKPREEQYNSTYRVVSVLTVLHQDWLNGKEYKCKVSNKALPAPIEKTISKAKGQPREPQVYTLPPSRDELTKNQVNLTCLVKGFYPSDIAVEWESNGQPENNYKTTPPVLDSDGSFFLNSTLTVDKSRWQQGNVFSCSVMHEALHNHYTQKSLSLSPGK

target: T1, CH2-4 constant domains of human IgE …; test: as above; remark: another data set of the same source
Description: as §1

Row | Bmax [MFI] | Kd [nM] | Binder
6 | 1.9e+06 | 1.51 | hzB10v37-NNT (Fc fusion, monomeric) VHH-Fc: EVQLLESGGGEVQPGGSLRLSCVASGLTFSSYNMGWLRQAPGKEREFVGLSGSSSTSTYYAESVKGRFTISRDNSKNTVYLQMTSLKAEDTAVYYCAARRLLSTYWSDRSWDFWGQGTLVTVEPGGPSVFLFPPKPKDTLMISRTPEVTCVVVDVSHEDPEVKFNWYVDGVEVHNAKTKPREEQYNSTYRVVSVLTVLHQDWLNGKEYKCKVSNKALPAPIEKTISKAKGQPREPQVYTLPPSRDELTKNQVNLTCLVKGFYPSDIAVEWESNGQPENNYKTTPPVLDSDGSFFLNSTLTVDKSRWQQGNVFSCSVMHEALHNHYTQKSLSLSPGK
7 | 2.02e+06 | 0.98 | hzB10v38-NNT (Fc fusion, monomeric) VHH-Fc: EVQLLESGGGEVQPGGSLRLSCVASGLTFSSYNMGWLRQAPGKEREFVGLSGSSSTSTYYAESVKGRFTISRDNSKNTVYLQMTSLRPEDTAVYYCAARRLLSTYWSDRSWDFWGQGTLVTVEPGGPSVFLFPPKPKDTLMISRTPEVTCVVVDVSHEDPEVKFNWYVDGVEVHNAKTKPREEQYNSTYRVVSVLTVLHQDWLNGKEYKCKVSNKALPAPIEKTISKAKGQPREPQVYTLPPSRDELTKNQVNLTCLVKGFYPSDIAVEWESNGQPENNYKTTPPVLDSDGSFFLNSTLTVDKSRWQQGNVFSCSVMHEALHNHYTQKSLSLSPGK
8 | – | 1.69 | hzB10v30-NNT (Fc fusion, monomeric) VHH-Fc: EVQLLESGGGEVQPGGSLRLSCVASGLTFSSYNMGWLRQAPGKEREFVGLSGSSSTSTYYAESVKGRFTISRDNSKNTVYLQMTSLRAEDTAVYYCAARRLLSTYWSDRSWDFWGQGTQVTVEPGGPSVFLFPPKPKDTLMISRTPEVTCVVVDVSHEDPEVKFNWYVDGVEVHNAKTKPREEQYNSTYRVVSVLTVLHQDWLNGKEYKCKVSNKALPAPIEKTISKAKGQPREPQVYTLPPSRDELTKNQVNLTCLVKGFYPSDIAVEWESNGQPENNYKTTPPVLDSDGSFFLNSTLTVDKSRWQQGNVFSCSVMHEALHNHYTQKSLSLSPGK
9 | – | 1.37 | hzB10v39-NNT (Fc fusion, monomeric) VHH-Fc: EVQLLESGGGEVQPGGSLRLSCVASGLTFSSYNMGWLRQAPGKEREFVGLSGSSSTSTYYAESVKGRFTISRDNSKNTVYLQMTSLRAEDTAVYYCAARRLLSTYWSDRSWDFWGQGTLVTVEPGGPSVFLFPPKPKDTLMISRTPEVTCVVVDVSHEDPEVKFNWYVDGVEVHNAKTKPREEQYNSTYRVVSVLTVLHQDWLNGKEYKCKVSNKALPAPIEKTISKAKGQPREPQVYTLPPSRDELTKNQVNLTCLVKGFYPSDIAVEWESNGQPENNYKTTPPVLDSDGSFFLNSTLTVDKSRWQQGNVFSCSVMHEALHNHYTQKSLSLSPGK

target: T1, CH2-4 constant domains of human IgE …; test: as above; remark: another data set of the same source
Description: as §1

Row | Bmax [MFI] | Kd [nM] | Binder
10 | 725000 | 1.63 | hzB10v30-NNT (Fc fusion, monomeric) VHH-Fc: EVQLLESGGGEVQPGGSLRLSCVASGLTFSSYNMGWLRQAPGKEREFVGLSGSSSTSTYYAESVKGRFTISRDNSKNTVYLQMTSLRAEDTAVYYCAARRLLSTYWSDRSWDFWGQGTQVTVEPGGPSVFLFPPKPKDTLMISRTPEVTCVVVDVSHEDPEVKFNWYVDGVEVHNAKTKPREEQYNSTYRVVSVLTVLHQDWLNGKEYKCKVSNKALPAPIEKTISKAKGQPREPQVYTLPPSRDELTKNQVNLTCLVKGFYPSDIAVEWESNGQPENNYKTTPPVLDSDGSFFLNSTLTVDKSRWQQGNVFSCSVMHEALHNHYTQKSLSLSPGK

target: T1, CH2-4 constant domains of human IgE …; test: as above; remark: another data set of the same source
Description: as §1

Row | Bmax [MFI] | Kd [nM] | Binder
11 | 1.96e+06 | 1.05 | hzB10v23-NNT (Fc fusion, monomeric) VHH-Fc: EVQLLESGGGEVQPGGSLRLSCVASGLTFSSYNMGWLRQAPGKEREFVGLSGSSSTSTYYADSVKGRFTISRDNSKNTVYLQMNSLKAEDTAVYYCAARRLLSTYWSDRSWDFWGQGTQVTVEPGGPSVFLFPPKPKDTLMISRTPEVTCVVVDVSHEDPEVKFNWYVDGVEVHNAKTKPREEQYNSTYRVVSVLTVLHQDWLNGKEYKCKVSNKALPAPIEKTISKAKGQPREPQVYTLPPSRDELTKNQVNLTCLVKGFYPSDIAVEWESNGQPENNYKTTPPVLDSDGSFFLNSTLTVDKSRWQQGNVFSCSVMHEALHNHYTQKSLSLSPGK
12 | 2.01e+06 | 2.8 | hzB10v25-NNT (Fc fusion, monomeric) VHH-Fc: EVQLLESGGGEVQPGGSLRLSCVASGLTFSSYNMGWLRQAPGKEREFVSLSGSSSTSTYYADSVKGRFTISRDNSKNTVYLQMNSLKPEDTAVYYCAARRLLSTYWSDRSWDFWGQGTQVTVEPGGPSVFLFPPKPKDTLMISRTPEVTCVVVDVSHEDPEVKFNWYVDGVEVHNAKTKPREEQYNSTYRVVSVLTVLHQDWLNGKEYKCKVSNKALPAPIEKTISKAKGQPREPQVYTLPPSRDELTKNQVNLTCLVKGFYPSDIAVEWESNGQPENNYKTTPPVLDSDGSFFLNSTLTVDKSRWQQGNVFSCSVMHEALHNHYTQKSLSLSPGK
13 | – | 1.43 | hzB10v26-NNT (Fc fusion, monomeric) VHH-Fc: EVQLLESGGGEVQPGGSLRLSCVASGLTFSSYNMGWLRQAPGKEREFVGMSGSSSTSTYYADSVKGRFTISRDNSKNTVYLQMNSLKPEDTAVYYCAARRMLSTYWSDRSWDFWGQGTQVTVKPGGPSVFLFPPKPKDTLMISRTPEVTCVVVDVSHEDPEVKFNWYVDGVEVHNAKTKPREEQYNSTYRVVSVLTVLHQDWLNGKEYKCKVSNKALPAPIEKTISKAKGQPREPQVYTLPPSRDELTKNQVNLTCLVKGFYPSDIAVEWESNGQPENNYKTTPPVLDSDGSFFLNSTLTVDKSRWQQGNVFSCSVMHEALHNHYTQKSLSLSPGK
14 | 1.92e+06 | 2.52 | hzB10v24-NNT (Fc fusion, monomeric) VHH-Fc: EVQLLESGGGEVQPGGSLRLSCVASGLTFSSYNMGWVRQAPGKEREFVGLSGSSSTSTYYADSVKGRFTISRDNSKNTVYLQMNSLKPEDTAVYYCAARRLLSTYWSDRSWDFWGQGTQVTVEPGGPSVFLFPPKPKDTLMISRTPEVTCVVVDVSHEDPEVKFNWYVDGVEVHNAKTKPREEQYNSTYRVVSVLTVLHQDWLNGKEYKCKVSNKALPAPIEKTISKAKGQPREPQVYTLPPSRDELTKNQVNLTCLVKGFYPSDIAVEWESNGQPENNYKTTPPVLDSDGSFFLNSTLTVDKSRWQQGNVFSCSVMHEALHNHYTQKSLSLSPGK
